Measured values as given in patent US20230167182A1 (BIOSION, published 2023).

T1: macaca IL6R-his protein (macaca mulatta)
T1 chain: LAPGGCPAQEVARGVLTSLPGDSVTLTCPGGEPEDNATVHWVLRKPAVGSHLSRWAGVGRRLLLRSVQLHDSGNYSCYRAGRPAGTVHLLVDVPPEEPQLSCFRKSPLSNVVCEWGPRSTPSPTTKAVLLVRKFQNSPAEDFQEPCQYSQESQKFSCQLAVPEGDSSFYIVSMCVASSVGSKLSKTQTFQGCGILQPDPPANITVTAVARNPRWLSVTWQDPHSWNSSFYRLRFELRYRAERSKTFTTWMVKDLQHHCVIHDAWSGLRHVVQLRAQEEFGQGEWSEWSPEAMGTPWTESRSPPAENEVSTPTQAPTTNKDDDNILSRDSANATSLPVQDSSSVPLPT


Key:
human IL6R-Fc protein [1] = target: T2, human IL6R-Fc protein (human, biotin-labeled in the ELISAs (sites not given)); test: benchmark blocking ELISA: antibody pre-incubated with biotin-labeled human IL6R-Fc, added to plate-coated Tocilizumab (competitor: Tocilizumab)
T2 construct: In house made; also called biotin-labeled human IL6R-Fc protein

human IL6R-Fc protein [2] = target: T2, human IL6R-Fc protein; test: capture ELISA: antibody captured on anti-IgG F(ab')2 coated plate, then biotin-labeled human IL6R-Fc, streptavidin-HRP
Protocol: For the capture ELISA, 96-well micro plates were coated with 2 μg/ml AffiniPure Goat Anti-Mouse IgG, F(ab′)₂ fragment specific (Jackson ImmunoResearch Laboratories, Inc., Cat #115-005-072) in PBS, 100 μl/well, and incubated for 2 hours at 37° C. Plates were washed once with wash buffer (PBS+0.05% v/v Tween-20, PBST) and then blocked with 200 μl/well blocking buffer (5% w/v non-fatty milk in PBST) overnight at 4° C. […] Plates containing captured anti-IL6R antibodies were incubated with biotin-labeled human IL6R-Fc protein (prepared in house, SEQ ID NO: 43, 39.5 ng/ml in 2.5% w/v non-fatty milk in PBST, 100 μl/well) for 40 minutes at 37° C., washed 4 times, and incubated with streptavidin conjugated HRP (1:10000 dilution in PBST, Jackson ImmunoResearch Laboratories, Inc., Cat #016-030-084, 100 μl/well) for 40 minutes at 37° C. After a final wash, plates were incubated with 100 μl/well ELISA substrate TMB (InnoReagents, Cat #TMB-S-002). The reaction was stopped 3-10 minutes later at room temperature with 50 μl/well 1M H₂SO₄, and the absorbance of each well was read on a microplate reader using dual wavelength mode at 450 nm for TMB and 630 nm as the reference wavelength. Then the OD (450-630) values were plotted against antibody concentration. Data was analyzed using Graphpad Prism software and EC₅₀ values were reported.
For the capture ELISA, AffiniPure Goat Anti-Human IgG, F(ab′)₂ fragment specific (Jackson Immuno Research, Cat #109-005-097) was used instead of AffiniPure Goat Anti-Mouse IgG, F(ab′)₂ fragment specific, 100 μl/well.

human IL6R-Fc protein [3] = target: T2, human IL6R-Fc protein; test: ligand blocking ELISA: antibody pre-incubated with biotin-labeled human IL6R-Fc, added to plate-coated human IL6 (blocked ligand: human IL6)
human IL6R-Fc protein [4] = target: T2, human IL6R-Fc protein; test: benchmark blocking ELISA: antibody pre-incubated with biotin-labeled human IL6R-Fc, added to plate-coated Tocilizumab (competitor: Tocilizumab); remark: listed apart in the source
Target sequence in this assay (chain, as listed by the source limits assumed): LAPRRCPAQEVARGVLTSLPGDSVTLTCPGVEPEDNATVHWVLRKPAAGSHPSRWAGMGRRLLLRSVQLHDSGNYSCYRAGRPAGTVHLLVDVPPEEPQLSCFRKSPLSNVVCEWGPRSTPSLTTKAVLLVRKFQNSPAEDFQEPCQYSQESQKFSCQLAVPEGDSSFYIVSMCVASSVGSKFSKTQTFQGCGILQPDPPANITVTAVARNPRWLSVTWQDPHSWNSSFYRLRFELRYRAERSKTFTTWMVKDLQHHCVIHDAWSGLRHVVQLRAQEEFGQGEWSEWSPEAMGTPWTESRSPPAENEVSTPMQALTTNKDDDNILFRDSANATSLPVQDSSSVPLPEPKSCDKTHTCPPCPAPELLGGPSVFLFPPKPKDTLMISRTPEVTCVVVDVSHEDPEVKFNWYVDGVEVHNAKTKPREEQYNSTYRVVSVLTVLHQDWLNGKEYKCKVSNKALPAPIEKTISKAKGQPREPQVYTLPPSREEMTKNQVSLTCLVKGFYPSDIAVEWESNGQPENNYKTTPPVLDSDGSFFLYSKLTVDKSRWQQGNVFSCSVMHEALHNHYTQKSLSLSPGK

macaca IL6R-his protein = target: T1, macaca IL6R-his protein; test: indirect ELISA on plate-coated macaca IL6R-his
Protocol: The anti-IL6R antibodies were tested for their cross-reaction with macaca IL6R. Briefly, 96-well micro plates were coated with 2 μg/ml macaca IL6R-his protein (in house made, amino acid sequence set forth in SEQ ID NO:45) in carbonate/bicarbonate buffer (pH 9.6), 100 μl/well, for 2 hours at 37° C. ELISA plates were washed once with wash buffer (PBS+0.05% v/v Tween-20, PBST) and then blocked with 200 μl/well blocking buffer (5% w/v non-fatty milk in PBST) for 2 hours at 37° C. Plates were washed 4 times and incubated with 100 μl/well serially diluted anti-IL6R antibodies of the disclosure or controls, starting at 66.67 nM with 5-fold serial dilution in PBST with 2.5% w/v non-fat milk, and incubated at 37° C. for 40 minutes. ELISA plates were washed 4 times again and incubated with 100 μl/well Peroxidase AffiniPure Goat Anti-Mouse IgG, Fcγ Fragment Specific (1:5000 dilution in PBST buffer, Jackson ImmunoResearch Laboratories, Inc., Cat #115-035-071) for 40 minutes at 37° C. After the final wash, plates were incubated with 100 μl/well TMB (InnoReagents). The reaction was stopped 3-10 minutes later at room temperature with 50 μl/well 1M H₂SO₄, and the absorbance of each well was read on a microplate reader using dual wavelength mode with 450 nm for TMB and 630 nm as the reference wavelength. Then the OD (450-630) values were plotted against antibody concentration. Data was analyzed using Graphpad Prism software and EC₅₀ values were reported.

Binder | IC50 (human IL6R-Fc protein [1]) [nM] | EC50 (human IL6R-Fc protein [2]) [nM] | IC50 (human IL6R-Fc protein [3]) [nM] | IC50 (human IL6R-Fc protein [4]) [nM] | EC50 (macaca IL6R-his protein) [nM]
mouse anti-IL6R monoclonal antibody 1H9 (antibody, V domains shown, Mouse hybridoma mAb) VH: QVQLQQPGAELVKPGASVKLSCKASGYTFTSYWMHWVKLRPGQGLEWIGEINPTNGRTNYYEKFKNRATLTADKSSSTAYMQLSSLTFEDSAVYFCAKFHYSRWYFDVWGTGTTVTVSS VL: DIVMTQSQKFMSTSVGDRVSITCKASQNVGTAVVWYQQKPGQSPKLLINPASNRYTGVPDRFTGSGSGTDFTLTISNMQSEDLADYFCQQYSSYPLTFGAGTKLELK | 0.394 | 0.0834 | 0.274 |  | 
mouse anti-IL6R monoclonal antibody 3C2 (antibody, V domains shown, Mouse hybridoma mAb) VH: QVQLQQPGTELVKPGASVKLSCKASGYTFTTYWIHWVKQRPGQGLEWIGEINPSNGRTNYNEHFKSKATLTVDKSSSTASMQLSSLTSADSAVYYCARLNTHYVFDSWGQGTTLTVSS VL: EIVLTQSPTTMAASPGEKITITCSASSSISSNYLHWYQQKPGFSPKLLIYRTSNLASGVPTHFSGSGSGTSYSLTIGTMEAEDVATYYCQQGSGIPFTFGSGTKLEIK |  |  |  |  | 0.296
mouse anti-IL6R monoclonal antibody 1H7 (antibody, V domains shown, Mouse hybridoma mAb) VH: QVQLQQPGTELVKPGASVKLSCKASGYTFTNYWMHWVKQRPGQGLDWIGEINPTNGRTNYNENFKSKATLTVDKSSSTAYMQLSSLTSEDSAVYYCARLNTHYVFDSWGQGTTLTLSS VL: EIVLTQSPTTLAASPGEKITFTCSVSSSISSNYLHWYQQKPGFSPKLLISRTSTLASGVPARFSGSGSGTSYSLTIGTMEAEDVATYYCQQGSGIPFTFGSGTKLELK |  |  |  | 0.186 | 0.213
Chimeric 1H7 (antibody, human IgG1, kappa, V domains shown, Mouse variable regions on human IgG1 / human kappa constant regions; also called chimeric antibody 1H7) VH: QVQLQQPGTELVKPGASVKLSCKASGYTFTNYWMHWVKQRPGQGLDWIGEINPTNGRTNYNENFKSKATLTVDKSSSTAYMQLSSLTSEDSAVYYCARLNTHYVFDSWGQGTTLTLSS VL: EIVLTQSPTTLAASPGEKITFTCSVSSSISSNYLHWYQQKPGFSPKLLISRTSTLASGVPARFSGSGSGTSYSLTIGTMEAEDVATYYCQQGSGIPFTFGSGTKLELKR |  |  |  | 0.194 | 

The remaining binders from weak to strong by EC50 (macaca IL6R-his protein), led by results:

IC50 (human IL6R-Fc protein [1]) [nM] | EC50 (human IL6R-Fc protein [2]) [nM] | IC50 (human IL6R-Fc protein [3]) [nM] | IC50 (human IL6R-Fc protein [4]) [nM] | EC50 (macaca IL6R-his protein) [nM] | Binder
 |  |  | 0.23 | 0.205 | mouse anti-IL6R monoclonal antibody 1B5 (antibody, V domains shown, Mouse hybridoma mAb) VH: QVQLQQPGAELVKPGASVKLSCKASGYTFTSYWMHWVKQRPGQGLEWIGEINPSNGRTNYNENFKSKATLTVDKSSSTAYMQLSSLTSEDSAVYYCARLNTHYVFDYWGQGTTLTVSS VL: EIVLTQSPTILAASPGEKITFTCSVSSSISSNYLHWYQQKPGFSPKLLIYRTSNLASGVPARFSGSGSGTSYSLTIGTMEAEDVATYYCQQGSGIPFTFGSGTKLEIK
 |  |  |  | 0.14 | mouse anti-IL6R monoclonal antibody 1F7 (antibody, V domains shown, Mouse hybridoma mAb) VH: QVQLQQPGAELVKPGASVKLSCKASDYTFTSYWMHWVKQRPGQGLEWIGEINPSNGRTNYNEKFKNKATLTVDKSSSTAYVQLYSLTSEDSAVYYCARLSIHYVFDYWGQGTTLTVSS VL: ELVLTQSPTTMAASPGEKITFTCSASSSISSNYLHWYQQKPGFSPKLLISGTSNLASGVPPRFSGSGSGTSYSLTIVTMEAEDVATYYCQQGSGIPFTFGSGTKLEIK
0.77 | 0.18 | 0.616 | 0.812 | 0.0571 | Tocilizumab (antibody, human IgG1, kappa, V domains shown, In house made; also called benchmark; Actemra) VH: QVQLQESGPGLVRPSQTLSLTCTVSGYSITSDHAWSWVRQPPGRGLEWIGYISYSGITTYNPSLKSRVTMLRDTSKNQFSLRLSSVTAADTAVYYCARSLARTTAMDYWGQGSLVTVSS VL: DIQMTQSPSSLSASVGDRVTITCRASQDISSYLNWYQQKPGKAPKLLIYYTSRLHSGVPSRFSGSGSGTDFTFTISSLQPEDIATYYCQQGNTLPYTFGQGTKVEIKR
